# System: Escherichia coli TOP10
# Assay: shrunken log2 fold change of peptide-encoding DNA abundance (4.5 h post-induction vs induction); higher = less antimicrobial activity (less host growth inhibition)
# Conditions: time post-induction: 4.5 h; library: site-saturation at positions 5, 18, 19, 20
# 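Further: peptides expressed intracellularly from a pBAD plasmid library in pooled LB shake-flask culture, induced with 0.3% L-arabinose, DNA abundance read by NGS, three biological replicates, DESeq2 with apeglm shrinkage.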
row,Sequence,shrunken log2 fold change
1,RRIRWRPPRLPRPRPRPMEIPRP,-0.0287
2,RRIRDRPPRLPRPRPRPSFQPRP,-0.0455
3,RRIRIRPPRLPRPRPRPRWLPRP,0.119
4,RRIRFRPPRLPRPRPRPCFDPRP,-0.121
5,RRIRIRPPRLPRPRPRPWRTPRP,-1.03
6,RRIRCRPPRLPRPRPRPHIFPRP,-1.15
7,RRIRCRPPRLPRPRPRPLLPPRP,-0.143
8,RRIRSRPPRLPRPRPRPYLEPRP,-0.118
9,RRIRNRPPRLPRPRPRPVREPRP,0.249
10,RRIRVRPPRLPRPRPRPPFLPRP,1.11
11,RRIRSRPPRLPRPRPRPYTCPRP,-0.039
12,RRIRQRPPRLPRPRPRPWSWPRP,-0.0208
13,RRIRDRPPRLPRPRPRPRVEPRP,0.137
14,RRIRPRPPRLPRPRPRPGKTPRP,0.294
15,RRIRIRPPRLPRPRPRPCHAPRP,-0.618
16,RRIRLRPPRLPRPRPRPCTTPRP,0.0144
17,RRIRMRPPRLPRPRPRPASSPRP,-0.00458
18,RRIRTRPPRLPRPRPRPFQDPRP,0.00739
19,RRIRDRPPRLPRPRPRPCHWPRP,-0.00151
20,RRIRNRPPRLPRPRPRPAHKPRP,0.00838
21,RRIRGRPPRLPRPRPRPHNMPRP,-0.285
22,RRIRFRPPRLPRPRPRPGRCPRP,0.259
23,RRIRGRPPRLPRPRPRPISPPRP,-0.0176
24,RRIRFRPPRLPRPRPRPPPVPRP,1.43
25,RRIRIRPPRLPRPRPRPGYMPRP,-0.442

row,Sequence,shrunken log2 fold change
1,RRIRKRPPRLPRPRPRPYLDPRP,-0.0998
2,RRIRVRPPRLPRPRPRPYYRPRP,-0.309
3,RRIRLRPPRLPRPRPRPGLAPRP,0.164
4,RRIRSRPPRLPRPRPRPWCLPRP,-0.11
5,RRIRNRPPRLPRPRPRPQIVPRP,-0.0891
6,RRIRYRPPRLPRPRPRPTRYPRP,-0.469
7,RRIRGRPPRLPRPRPRPHRKPRP,0.101
8,RRIRCRPPRLPRPRPRPAFPPRP,0.16
9,RRIRERPPRLPRPRPRPSGHPRP,-0.289
10,RRIRSRPPRLPRPRPRPATDPRP,0.157
11,RRIRIRPPRLPRPRPRPWFPPRP,-0.349
12,RRIRQRPPRLPRPRPRPLANPRP,-0.00739
13,RRIRLRPPRLPRPRPRPWRSPRP,-0.0908
14,RRIRLRPPRLPRPRPRPEMCPRP,0.0636
15,RRIRGRPPRLPRPRPRPQPLPRP,0.45
16,RRIRERPPRLPRPRPRPVEKPRP,-0.0163
17,RRIRRRPPRLPRPRPRPCNCPRP,-0.0759
18,RRIRARPPRLPRPRPRPMPVPRP,0.0463
19,RRIRERPPRLPRPRPRPVETPRP,-0.02
20,RRIRKRPPRLPRPRPRPLDCPRP,-0.0764
21,RRIRGRPPRLPRPRPRPRCVPRP,0.689
22,RRIRVRPPRLPRPRPRPIGPPRP,-0.0936
23,RRIRIRPPRLPRPRPRPHCWPRP,-0.27
24,RRIRNRPPRLPRPRPRPDMWPRP,-0.119
25,RRIRGRPPRLPRPRPRPCCEPRP,0.528

row,Sequence,shrunken log2 fold change
1,RRIRMRPPRLPRPRPRPLNKPRP,0.118
2,RRIRKRPPRLPRPRPRPATIPRP,0.00392
3,RRIRNRPPRLPRPRPRPWRGPRP,0.226
4,RRIRGRPPRLPRPRPRPYRRPRP,-0.00129
5,RRIRLRPPRLPRPRPRPNNFPRP,-0.184
6,RRIRFRPPRLPRPRPRPMNFPRP,-0.283
7,RRIRLRPPRLPRPRPRPEVMPRP,0.0474
8,RRIRTRPPRLPRPRPRPVRHPRP,-0.041
9,RRIRSRPPRLPRPRPRPDWYPRP,-0.3
10,RRIRGRPPRLPRPRPRPSDCPRP,0.105
11,RRIRPRPPRLPRPRPRPGLTPRP,0.0985
12,RRIRNRPPRLPRPRPRPSIGPRP,-0.109
13,RRIRMRPPRLPRPRPRPCWFPRP,-0.0997
14,RRIRNRPPRLPRPRPRPIHEPRP,-0.00804
15,RRIRNRPPRLPRPRPRPIAEPRP,0.196
16,RRIRRRPPRLPRPRPRPWDHPRP,0.0105
17,RRIRKRPPRLPRPRPRPPPGPRP,0.961
18,RRIRERPPRLPRPRPRPLSMPRP,-0.242
19,RRIRSRPPRLPRPRPRPSPSPRP,0.0408
20,RRIRQRPPRLPRPRPRPCLWPRP,-0.162
21,RRIRVRPPRLPRPRPRPEGVPRP,0.907
22,RRIRQRPPRLPRPRPRPWYTPRP,-0.132
23,RRIRERPPRLPRPRPRPYQFPRP,-0.159
24,RRIRYRPPRLPRPRPRPMSPPRP,-0.0952
25,RRIRERPPRLPRPRPRPILMPRP,-0.317

row,Sequence,shrunken log2 fold change
1,RRIRNRPPRLPRPRPRPGQRPRP,0.00993
2,RRIRCRPPRLPRPRPRPSTEPRP,-0.174
3,RRIRSRPPRLPRPRPRPQVSPRP,-0.236
4,RRIRERPPRLPRPRPRPHKPPRP,-0.519
5,RRIRCRPPRLPRPRPRPPQVPRP,0.204
6,RRIRNRPPRLPRPRPRPMVNPRP,-0.00142
7,RRIRVRPPRLPRPRPRPMHLPRP,-0.167
8,RRIRHRPPRLPRPRPRPIAQPRP,-0.0267
9,RRIRHRPPRLPRPRPRPHGLPRP,0.15
10,RRIRNRPPRLPRPRPRPLRIPRP,0.0934
11,RRIRHRPPRLPRPRPRPISSPRP,-0.202
12,RRIRKRPPRLPRPRPRPCSIPRP,0.11
13,RRIRRRPPRLPRPRPRPSPRPRP,1.03
14,RRIRCRPPRLPRPRPRPWLLPRP,-0.381
15,RRIRMRPPRLPRPRPRPKPQPRP,1.41
16,RRIRRRPPRLPRPRPRPGEGPRP,0.747
17,RRIRYRPPRLPRPRPRPELFPRP,-0.0192
18,RRIRQRPPRLPRPRPRPLADPRP,0.194
19,RRIRRRPPRLPRPRPRPFGPPRP,0.165
20,RRIRVRPPRLPRPRPRPRLDPRP,0.238
21,RRIRNRPPRLPRPRPRPCEHPRP,-0.162
22,RRIRKRPPRLPRPRPRPSETPRP,0.0356
23,RRIRFRPPRLPRPRPRPWQSPRP,0.146
24,RRIRMRPPRLPRPRPRPEQEPRP,0.033
25,RRIRDRPPRLPRPRPRPNPWPRP,0.111

row,Sequence,shrunken log2 fold change
1,RRIRYRPPRLPRPRPRPQTMPRP,-0.23
2,RRIRPRPPRLPRPRPRPMGRPRP,-0.0125
3,RRIRFRPPRLPRPRPRPMVHPRP,-0.468
4,RRIRLRPPRLPRPRPRPCHNPRP,0.0575
5,RRIRFRPPRLPRPRPRPLFPPRP,-0.23
6,RRIRSRPPRLPRPRPRPENHPRP,-0.138
7,RRIRWRPPRLPRPRPRPLSTPRP,0.383
8,RRIRCRPPRLPRPRPRPLQCPRP,-0.279
9,RRIRGRPPRLPRPRPRPIIQPRP,0.203
10,RRIRGRPPRLPRPRPRPSWLPRP,0.519
11,RRIRWRPPRLPRPRPRPRTHPRP,0.0534
12,RRIRRRPPRLPRPRPRPNHMPRP,-0.299
13,RRIRHRPPRLPRPRPRPKDDPRP,-0.152
14,RRIRDRPPRLPRPRPRPCMSPRP,-0.256
15,RRIRGRPPRLPRPRPRPTIRPRP,0.432
16,RRIRIRPPRLPRPRPRPIIPPRP,-0.072
17,RRIRTRPPRLPRPRPRPPVTPRP,0.361
18,RRIRCRPPRLPRPRPRPQKMPRP,-0.0362
19,RRIRPRPPRLPRPRPRPRAMPRP,0.292
20,RRIRYRPPRLPRPRPRPIFFPRP,-0.353
21,RRIRYRPPRLPRPRPRPPFMPRP,-0.422
22,RRIRIRPPRLPRPRPRPIEIPRP,-0.437
23,RRIRGRPPRLPRPRPRPFAMPRP,0.68
24,RRIRNRPPRLPRPRPRPSSRPRP,-0.164
25,RRIRPRPPRLPRPRPRPNWHPRP,-0.0472

# — the supplement of paper PMC9112550, “Optimization of the antimicrobial peptide Bac7 by deep mutational scanning” (BMC Biology, 2022)
